To fix the notation:
B1: Compound 121 (peptide)
peptide: Ac-SEYCI[Trp(1-Me)]QEW[Sar]EHRC[Sar]EK[γGlu]AK([AEEA-γGlu-AEEA-Gly-γGlu-C18 diacid])-NH2
modifications: disulfide 4-14
SMILES: CC[C@H](C)[C@@H]1NC(=O)[C@@H](NC(=O)[C@H](Cc2ccc(O)cc2)NC(=O)[C@H](CCC(=O)O)NC(=O)[C@H](CO)NC(C)=O)CSSC[C@@H](C(=O)N(C)CC(=O)N[C@@H](CCC(=O)O)C(=O)N[C@@H](CCCCN)C(=O)N[C@@H](CCC(=O)N[C@@H](C)C(=O)N[C@@H](CCCCNC(=O)COCCOCCNC(=O)CC[C@H](NC(=O)COCCOCCNC(=O)CNC(=O)CC[C@H](NC(=O)CCCCCCCCCCCCCCCCC(=O)O)C(=O)O)C(=O)O)C(N)=O)C(=O)O)NC(=O)[C@H](CCCNC(=N)N)NC(=O)[C@H](Cc2c[nH]cn2)NC(=O)[C@H](CCC(=O)O)NC(=O)CN(C)C(=O)[C@H](Cc2c[nH]c3ccccc23)NC(=O)[C@H](CCC(=O)O)NC(=O)[C@H](CCC(N)=O)NC(=O)[C@H](Cc2cn(C)c3ccccc23)NC1=O
B2: Compound 130 (peptide)
peptide: Ac-SEFCI[Trp(1-Me)]QDWGEHRCTEGEGGGK([γGlu-Gly-γGlu-C18 diacid])-NH2
modifications: disulfide 4-14
SMILES: CC[C@H](C)[C@@H]1NC(=O)[C@@H](NC(=O)[C@H](Cc2ccccc2)NC(=O)[C@H](CCC(=O)O)NC(=O)[C@H](CO)NC(C)=O)CSSC[C@@H](C(=O)N[C@H](C(=O)N[C@@H](CCC(=O)O)C(=O)NCC(=O)N[C@@H](CCC(=O)O)C(=O)NCC(=O)NCC(=O)NCC(=O)N[C@@H](CCCCNC(=O)CC[C@H](NC(=O)CNC(=O)CC[C@H](NC(=O)CCCCCCCCCCCCCCCCC(=O)O)C(=O)O)C(=O)O)C(N)=O)[C@@H](C)O)NC(=O)[C@H](CCCNC(=N)N)NC(=O)[C@H](Cc2c[nH]cn2)NC(=O)[C@H](CCC(=O)O)NC(=O)CNC(=O)[C@H](Cc2c[nH]c3ccccc23)NC(=O)[C@H](CC(=O)O)NC(=O)[C@H](CCC(N)=O)NC(=O)[C@H](Cc2cn(C)c3ccccc23)NC1=O
B3: Compound 140 (peptide)
peptide: Ac-SEFCI[Trp(1-Me)]QDWGEHRC[Sar]EGE[AEEA]ES-{X1-NH2}
modifications: disulfide 4-14
SMILES: CC[C@H](C)[C@@H]1NC(=O)[C@@H](NC(=O)[C@H](Cc2ccccc2)NC(=O)[C@H](CCC(=O)O)NC(=O)[C@H](CO)NC(C)=O)CSSC[C@@H](C(=O)N(C)CC(=O)N[C@@H](CCC(=O)O)C(=O)NCC(=O)N[C@@H](CCC(=O)O)C(=O)NCCOCCOCC(=O)N[C@@H](CCC(=O)O)C(=O)N[C@@H](CO)C(=O)N[C@@H](CCCCNC(=O)CC[C@H](NC(=O)CNC(=O)CC[C@H](NC(=O)CCCCCCCCCCCCCCCCC(=O)O)C(=O)O)C(=O)O)C(N)=O)NC(=O)[C@H](CCCNC(=N)N)NC(=O)[C@H](Cc2c[nH]cn2)NC(=O)[C@H](CCC(=O)O)NC(=O)CNC(=O)[C@H](Cc2c[nH]c3ccccc23)NC(=O)[C@H](CC(=O)O)NC(=O)[C@H](CCC(N)=O)NC(=O)[C@H](Cc2cn(C)c3ccccc23)NC1=O
B4: Compound 139 (peptide)
peptide: Ac-SEFCI[Trp(1-Me)]QDWGEHRC[Sar]EGESESK([γGlu-Gly-γGlu-C18 diacid])-NH2
modifications: disulfide 4-14
SMILES: CC[C@H](C)[C@@H]1NC(=O)[C@@H](NC(=O)[C@H](Cc2ccccc2)NC(=O)[C@H](CCC(=O)O)NC(=O)[C@H](CO)NC(C)=O)CSSC[C@@H](C(=O)N(C)CC(=O)N[C@@H](CCC(=O)O)C(=O)NCC(=O)N[C@@H](CCC(=O)O)C(=O)N[C@@H](CO)C(=O)N[C@@H](CCC(=O)O)C(=O)N[C@@H](CO)C(=O)N[C@@H](CCCCNC(=O)CC[C@H](NC(=O)CNC(=O)CC[C@H](NC(=O)CCCCCCCCCCCCCCCCC(=O)O)C(=O)O)C(=O)O)C(N)=O)NC(=O)[C@H](CCCNC(=N)N)NC(=O)[C@H](Cc2c[nH]cn2)NC(=O)[C@H](CCC(=O)O)NC(=O)CNC(=O)[C@H](Cc2c[nH]c3ccccc23)NC(=O)[C@H](CC(=O)O)NC(=O)[C@H](CCC(N)=O)NC(=O)[C@H](Cc2cn(C)c3ccccc23)NC1=O
B5: Compound 119 (peptide)
peptide: Ac-SEFCI[Trp(1-Me)]QDWGEHRC[Sar]EGAK([AEEA-γGlu-AEEA-Gly-γGlu-C18 diacid])-NH2
modifications: disulfide 4-14
SMILES: CC[C@H](C)[C@@H]1NC(=O)[C@@H](NC(=O)[C@H](Cc2ccccc2)NC(=O)[C@H](CCC(=O)O)NC(=O)[C@H](CO)NC(C)=O)CSSC[C@@H](C(=O)N(C)CC(=O)N[C@@H](CCC(=O)O)C(=O)NCC(=O)N[C@@H](C)C(=O)N[C@@H](CCCCNC(=O)COCCOCCNC(=O)CC[C@H](NC(=O)COCCOCCNC(=O)CNC(=O)CC[C@H](NC(=O)CCCCCCCCCCCCCCCCC(=O)O)C(=O)O)C(=O)O)C(N)=O)NC(=O)[C@H](CCCNC(=N)N)NC(=O)[C@H](Cc2c[nH]cn2)NC(=O)[C@H](CCC(=O)O)NC(=O)CNC(=O)[C@H](Cc2c[nH]c3ccccc23)NC(=O)[C@H](CC(=O)O)NC(=O)[C@H](CCC(N)=O)NC(=O)[C@H](Cc2cn(C)c3ccccc23)NC1=O
notes: also called Compound No 119
B6: Compound 122 (peptide)
peptide: Ac-SEYCI[Trp(1-Me)]QEWGEHRC[Sar]EGAK([AEEA-γGlu-AEEA-Gly-γGlu-C18 diacid])-NH2
modifications: disulfide 4-14
SMILES: CC[C@H](C)[C@@H]1NC(=O)[C@@H](NC(=O)[C@H](Cc2ccc(O)cc2)NC(=O)[C@H](CCC(=O)O)NC(=O)[C@H](CO)NC(C)=O)CSSC[C@@H](C(=O)N(C)CC(=O)N[C@@H](CCC(=O)O)C(=O)NCC(=O)N[C@@H](C)C(=O)N[C@@H](CCCCNC(=O)COCCOCCNC(=O)CC[C@H](NC(=O)COCCOCCNC(=O)CNC(=O)CC[C@H](NC(=O)CCCCCCCCCCCCCCCCC(=O)O)C(=O)O)C(=O)O)C(N)=O)NC(=O)[C@H](CCCNC(=N)N)NC(=O)[C@H](Cc2c[nH]cn2)NC(=O)[C@H](CCC(=O)O)NC(=O)CNC(=O)[C@H](Cc2c[nH]c3ccccc23)NC(=O)[C@H](CCC(=O)O)NC(=O)[C@H](CCC(N)=O)NC(=O)[C@H](Cc2cn(C)c3ccccc23)NC1=O
B7: Compound 120 (peptide)
peptide: Ac-SEFCI[Trp(1-Me)]QEWGEHRC[Sar]EGAK([AEEA-γGlu-AEEA-Gly-γGlu-C18 diacid])-NH2
modifications: disulfide 4-14
SMILES: CC[C@H](C)[C@@H]1NC(=O)[C@@H](NC(=O)[C@H](Cc2ccccc2)NC(=O)[C@H](CCC(=O)O)NC(=O)[C@H](CO)NC(C)=O)CSSC[C@@H](C(=O)N(C)CC(=O)N[C@@H](CCC(=O)O)C(=O)NCC(=O)N[C@@H](C)C(=O)N[C@@H](CCCCNC(=O)COCCOCCNC(=O)CC[C@H](NC(=O)COCCOCCNC(=O)CNC(=O)CC[C@H](NC(=O)CCCCCCCCCCCCCCCCC(=O)O)C(=O)O)C(=O)O)C(N)=O)NC(=O)[C@H](CCCNC(=N)N)NC(=O)[C@H](Cc2c[nH]cn2)NC(=O)[C@H](CCC(=O)O)NC(=O)CNC(=O)[C@H](Cc2c[nH]c3ccccc23)NC(=O)[C@H](CCC(=O)O)NC(=O)[C@H](CCC(N)=O)NC(=O)[C@H](Cc2cn(C)c3ccccc23)NC1=O
B8: Compound 126 (peptide)
peptide: Ac-SEFCI[Trp(1-Me)]QDWGEHRCTEGE-{AEEA-AEEA-X1-NH2}
modifications: disulfide 4-14
SMILES: CC[C@H](C)[C@@H]1NC(=O)[C@@H](NC(=O)[C@H](Cc2ccccc2)NC(=O)[C@H](CCC(=O)O)NC(=O)[C@H](CO)NC(C)=O)CSSC[C@@H](C(=O)N[C@H](C(=O)N[C@@H](CCC(=O)O)C(=O)NCC(=O)N[C@@H](CCC(=O)O)C(=O)NCCOCCOCC(=O)NCCOCCOCC(=O)N[C@@H](CCCCNC(=O)CC[C@H](NC(=O)CNC(=O)CC[C@H](NC(=O)CCCCCCCCCCCCCCCCC(=O)O)C(=O)O)C(=O)O)C(N)=O)[C@@H](C)O)NC(=O)[C@H](CCCNC(=N)N)NC(=O)[C@H](Cc2c[nH]cn2)NC(=O)[C@H](CCC(=O)O)NC(=O)CNC(=O)[C@H](Cc2c[nH]c3ccccc23)NC(=O)[C@H](CC(=O)O)NC(=O)[C@H](CCC(N)=O)NC(=O)[C@H](Cc2cn(C)c3ccccc23)NC1=O

Starred links: 1 amine or outer side, 2 acyl side, 3 side chain; linkers in the order of their positions; H or OH if unused. Positions of bridges follow the written chain, without caps; N, C: chain ends. Non-standard residues stand in square brackets, D forms with d. Groups on a side chain read outwards from the residue. *: point of attachment. X1 = K(γGlu-G-γGlu-17-carboxy-heptadecanoyl), O=C(O)CCCCCCCCCCCCCCCCC(=O)N[C@@H](CCC(=O)NCC(=O)N[C@@H](CCC(=O)NCCCC[C@H](N[*:1])C(=O)[*:2])C(=O)O)C(=O)O; Trp(1-Me) = Cn1cc(C[C@H](N)C(=O)O)c2ccccc21; C18 diacid = O=C(O)CCCCCCCCCCCCCCCCC(=O)*; γGlu = O=C(O)[C@H](CCC(=O)[*:2])N[*:1]; AEEA = NCCOCCOCC(=O)O; Sar = CNCC(=O)O

The target in the first assay is T1, Human C3 (Complement tech cat #A113c) (human, UniProt P01024 23-1663). Put plainly: cell-based or functional assay.
T1 sequence (P01024 23-1663 limits assumed): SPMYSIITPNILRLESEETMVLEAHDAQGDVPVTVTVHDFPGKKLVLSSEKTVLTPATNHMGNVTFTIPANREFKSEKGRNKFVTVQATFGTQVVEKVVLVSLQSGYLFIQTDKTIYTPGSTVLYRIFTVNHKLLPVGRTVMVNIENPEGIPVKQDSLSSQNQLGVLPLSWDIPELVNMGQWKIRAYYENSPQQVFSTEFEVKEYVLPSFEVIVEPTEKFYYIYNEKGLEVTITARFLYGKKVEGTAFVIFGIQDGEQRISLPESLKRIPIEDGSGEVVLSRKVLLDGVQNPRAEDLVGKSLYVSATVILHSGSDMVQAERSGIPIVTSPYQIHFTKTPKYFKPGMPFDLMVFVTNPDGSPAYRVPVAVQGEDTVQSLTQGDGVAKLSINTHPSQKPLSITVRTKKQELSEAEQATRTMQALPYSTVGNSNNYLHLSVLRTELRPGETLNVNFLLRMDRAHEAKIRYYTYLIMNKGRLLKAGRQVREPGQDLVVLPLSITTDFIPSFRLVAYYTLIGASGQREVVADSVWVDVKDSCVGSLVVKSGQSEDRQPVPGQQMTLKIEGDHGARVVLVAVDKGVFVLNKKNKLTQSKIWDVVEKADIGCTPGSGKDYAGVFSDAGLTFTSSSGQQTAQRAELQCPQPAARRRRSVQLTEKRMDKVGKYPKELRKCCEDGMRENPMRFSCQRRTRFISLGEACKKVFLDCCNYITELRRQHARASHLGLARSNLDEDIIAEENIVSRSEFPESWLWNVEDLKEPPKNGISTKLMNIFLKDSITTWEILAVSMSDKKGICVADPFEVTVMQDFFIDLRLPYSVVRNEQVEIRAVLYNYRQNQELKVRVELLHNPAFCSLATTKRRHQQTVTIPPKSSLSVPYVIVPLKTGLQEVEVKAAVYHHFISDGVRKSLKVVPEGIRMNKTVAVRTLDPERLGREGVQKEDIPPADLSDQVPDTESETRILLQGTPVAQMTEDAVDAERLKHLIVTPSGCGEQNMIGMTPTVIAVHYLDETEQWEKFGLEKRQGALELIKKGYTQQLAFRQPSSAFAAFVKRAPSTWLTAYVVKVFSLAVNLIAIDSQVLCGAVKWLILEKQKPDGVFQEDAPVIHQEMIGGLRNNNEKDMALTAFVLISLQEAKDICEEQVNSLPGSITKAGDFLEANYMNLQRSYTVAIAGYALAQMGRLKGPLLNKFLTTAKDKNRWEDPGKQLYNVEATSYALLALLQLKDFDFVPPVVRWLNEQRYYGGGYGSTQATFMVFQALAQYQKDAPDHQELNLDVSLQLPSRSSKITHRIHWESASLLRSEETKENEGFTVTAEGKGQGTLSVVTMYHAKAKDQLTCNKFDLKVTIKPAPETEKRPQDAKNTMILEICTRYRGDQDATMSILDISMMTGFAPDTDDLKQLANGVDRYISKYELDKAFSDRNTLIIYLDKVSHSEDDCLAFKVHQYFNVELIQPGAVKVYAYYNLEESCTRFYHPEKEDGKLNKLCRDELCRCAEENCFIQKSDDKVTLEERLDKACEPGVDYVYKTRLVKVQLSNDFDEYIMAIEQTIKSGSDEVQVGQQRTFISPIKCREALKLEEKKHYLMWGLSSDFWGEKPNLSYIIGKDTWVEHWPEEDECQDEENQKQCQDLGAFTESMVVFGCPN
As to B1, the “inhibition of hemolysis IC50” value is less than 250 nM.
As for B2, the “inhibition of hemolysis IC50” value was less than 100 nM.
Same read-out and setting: then B3, with less than 100 nM.
As to B4, the “inhibition of hemolysis IC50” value was less than 100 nM.
Take B5: the “inhibition of hemolysis IC50” value was less than 100 nM.
As for B6, the “inhibition of hemolysis IC50” value was less than 500 nM.
Take B7: the “inhibition of hemolysis IC50” value was less than 250 nM.
Consider Ac-SEFCI[Trp(1-Me)]QDWGEHRC[Sar]EGE-{AEEA-AEEA-K(γGlu-Gly-γGlu-15-carboxy-pentadecanoyl)-NH2} (disulfide 4-14) [Compound 127], for which the “inhibition of hemolysis IC50” value was less than 100 nM.
Same read-out and setting: then B8, with less than 100 nM; and Ac-SEFCI[Trp(1-Me)]QDWGEHRC[Sar]EGE-{AEEA-AEEA-K(γGlu-Gly-γGlu-19-carboxy-nonadecanoyl)-NH2} (disulfide 4-14, also called comp 128) [Compound 128], with less than 100 nM.

The target of the next assay is T1, Human C3 (Complement tech cat #A113c). Put plainly: SPR (Biacore T200), human C3 immobilised, peptide injected, 1:1 fit. How it is done:
Surface plasmon resonance (SPR) was used to characterize peptides with respect to their binding affinity (Kd) for C3. Human C3 (Complement tech cat #A113c) was immobilised on individual flow cells of CM5 sensor chips (GE Healthcare) using standard amine coupling to a density of approximately 3000 resonance units (RU) in a buffer consisting of 10 mM phosphate pH 7.4, 150 mM NaCl, 0.05% Tween20.
For interaction experiments a multi-cycle experiment approach was used and performed using a BiacoreT200™ instrument (GE Healthcare) at 25° C. Peptides were injected in increasing concentration series (6-8 different concentrations) for 60-120 sat a flow rate of 30 µL/min in a buffer consisting of 10 mM Tris buffer at pH 7.4, with 150 mM NaCl and 0.05% Tween20. This was followed by a dissociation period for up to 10 min. The C3 surface was regenerated between runs by a 45 s injection of 3 M MgCl_2.
(In SPR one partner is held on a chip, and binding of the other changes the refractive index at the surface.)
Turning to B1, the affinity, expressed as Kd, was 30 nM.
Still for that read-out and setting: then B2, with 4.4 nM.
Same read-out and setting: as for B3, the figure is 7.6 nM; as for B4, 7.4 nM; as for B5, 9.8 nM.
The molecule B6 showed a Kd of 63 nM.
On to B7, for which the Kd worked out at 28 nM.
Ac-SEFCI[Trp(1-Me)]QDWGEHRC[Sar]EGE-{AEEA-AEEA-K(γGlu-Gly-γGlu-15-carboxy-pentadecanoyl)-NH2} (disulfide 4-14) [Compound 127] came in with a Kd of 8.5 nM.
Same read-out and setting: then B8, with 5.2 nM.
Still for that read-out and setting: then Ac-SEFCI[Trp(1-Me)]QDWGEHRC[Sar]EGE-{AEEA-AEEA-K(γGlu-Gly-γGlu-19-carboxy-nonadecanoyl)-NH2} (disulfide 4-14, also called comp 128) [Compound 128], with 6.5 nM.

A word on the Kd: it is the free concentration of one partner at which half of the binding sites on the other are occupied at equilibrium, for simple one-to-one binding.

The values are drawn from patent US11965039B2, “Compstatin analogues and their medical uses” (priority 2018, dated 2024).
